Source: PMC6989145

How the values were obtained:
[1] = target: murine perforin-2 (mPFN2) ectodomain (mouse) (UniProt A1L314); assay: cryo-EM structure; pore: pre-pore sample lowered to pH 3.6 to 4.0 with 0.056% Cymal-6, room temperature, 30 min; C16 symmetry
[2] = target: murine perforin-2 (mPFN2) ectodomain (mouse) (UniProt A1L314); assay: high-speed atomic force microscopy; PFN2 monomers (0.043 mg/ml) incubated 5 min directly on freshly cleaved mica; 20 mM Hepes-NaOH pH 7.5, 200 mM NaCl, 2 mM CaCl2
[3] = target: murine perforin-2 (mPFN2) ectodomain (mouse) (UniProt A1L314); assay: high-speed atomic force microscopy; PFN2 monomers (0.043 mg/ml) incubated 5 min on a mica-supported E. coli lipid bilayer; 20 mM Hepes-NaOH pH 7.5, 200 mM NaCl, 2 mM CaCl2; subunit association and dissociation at incomplete rings, frames of 500 ms
[4] = target: murine perforin-2 (mPFN2) ectodomain (mouse) (UniProt A1L314); assay: cryo-EM structure; pre-pore oligomers formed in solution: 0.5 mg/ml in 50 mM citric acid buffer pH 5.5, 150 mM NaCl, 37°C overnight; purified by SEC (Superose 6); 0.01% Tween 20 added; C16 symmetry

## murine perforin-2 (mPFN2) ectodomain (from UniProt A1L314 20-652) (domain or fragment)
[1]
  stoichiometry N: 16
[2]
  stoichiometry N: 1 to 16 subunits
[3]
  subunit association rate (subunits·s^−1): 2.4
[4]
  stoichiometry N: 16 subunits
